Laboratory results reported in article PMC4559421, “Interaction of Yna1 and Yna2 Is Required for Nuclear Accumulation and Transcriptional Activation of the Nitrate Assimilation Pathway in the Yeast Hansenula polymorpha”.
Residue numbers refer to the chain shown, from its start.

Tests used:
Settings in all cases: protein: recombinant; tags: His; chain copies: 2; label: 32P end label
HIS-Yna1p(1-185) [1] = target: T1, HIS-Yna1p(1-185) (Hansenula polymorpha (syn. Pichia …, UniProt O93984 1-185)); experiment: EMSA; poly(dIdC); complex diminished by 1x-2x unlabelled probe; EMSA: 75 ng protein in 10 ul KCl 1 mM, spermidine 80 mM (so in the source), 0.1 mg/ml poly(dIdC), on ice then 30 min at room temperature with probe; 6% PAGE, 50% glycerol, 0.5x TBE; pH not stated
T1 sequence: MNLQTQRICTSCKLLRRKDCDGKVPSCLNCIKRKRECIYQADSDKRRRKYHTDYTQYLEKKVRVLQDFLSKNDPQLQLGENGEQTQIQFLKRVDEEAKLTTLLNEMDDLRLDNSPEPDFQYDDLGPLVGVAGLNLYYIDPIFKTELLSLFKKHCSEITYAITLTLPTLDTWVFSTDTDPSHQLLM

HIS-Yna2p(1-180) [2] = target: T2, HIS-Yna2p(1-180) (Hansenula polymorpha (syn. Pichia …, UniProt Q9HFM7 1-180)); experiment: EMSA; poly(dIdC); EMSA: 75 ng protein in 10 ul KCl 1 mM, spermidine 80 mM (so in the source), 0.1 mg/ml poly(dIdC), on ice then 30 min at room temperature with probe; 6% PAGE, 50% glycerol, 0.5x TBE; pH not stated
T2 sequence: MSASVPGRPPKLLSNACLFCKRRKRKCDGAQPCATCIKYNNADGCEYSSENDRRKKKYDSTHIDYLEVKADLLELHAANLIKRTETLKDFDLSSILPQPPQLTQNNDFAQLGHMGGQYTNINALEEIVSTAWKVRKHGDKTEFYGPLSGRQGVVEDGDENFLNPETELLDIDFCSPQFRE

HIS-Yna1p(1-185) [3] = target: T1, HIS-Yna1p(1-185); experiment: EMSA; poly(dIdC); complex abrogated by 1x-2x unlabelled probe; less stable than with probe 1; EMSA: 75 ng protein in 10 ul KCl 1 mM, spermidine 80 mM (so in the source), 0.1 mg/ml poly(dIdC), on ice then 30 min at room temperature with probe; 6% PAGE, 50% glycerol, 0.5x TBE; pH not stated
HIS-Yna2p(1-180) [4] = target: T2, HIS-Yna2p(1-180); experiment: EMSA; poly(dIdC); no detectable complex; EMSA: 75 ng protein in 10 ul KCl 1 mM, spermidine 80 mM (so in the source), 0.1 mg/ml poly(dIdC), on ice then 30 min at room temperature with probe; 6% PAGE, 50% glycerol, 0.5x TBE; pH not stated
HIS-Yna1p(1-185) [5] = target: T1, HIS-Yna1p(1-185); experiment: EMSA; poly(dIdC); complex formation disrupted; EMSA: 75 ng protein in 10 ul KCl 1 mM, spermidine 80 mM (so in the source), 0.1 mg/ml poly(dIdC), on ice then 30 min at room temperature with probe; 6% PAGE, 50% glycerol, 0.5x TBE; pH not stated
HIS-Yna1p(1-185) [6] = target: T1, HIS-Yna1p(1-185); experiment: EMSA; poly(dIdC); binding disrupted; EMSA: 75 ng protein in 10 ul KCl 1 mM, spermidine 80 mM (so in the source), 0.1 mg/ml poly(dIdC), on ice then 30 min at room temperature with probe; 6% PAGE, 50% glycerol, 0.5x TBE; pH not stated

B1: YNT1 probe 1 (dsDNA)
DNA 1: CCCGCTCATCGGAGAATATTCTGCTCAAAATTAAGGATGCCCAT
DNA 2: ATGGGCATCCTTAATTTTGAGCAGAATATTCTCCGATGAGCGGG
Question: Does B1 bind (HIS-Yna1p(1-185) [1])?
Answer: Result: binds

Question: Does B1 bind (HIS-Yna2p(1-180) [2])?
Answer: Result: binds

B2: YNT1 probe 2 (dsDNA)
DNA 1: GGCTAGCATCCCGCTCATCGGAGAATATTCTGC
DNA 2: GCAGAATATTCTCCGATGAGCGGGATGCTAGCC
Question: What does the source list for B2?
Answer: binding result (HIS-Yna1p(1-185) [3]): binds; binding result (HIS-Yna2p(1-180) [4]): no binding

B3: YNT1 probe 2 m1 (dsDNA)
DNA 1: B2 DNA 1 with C11A, C12A, G13T
DNA 2: B2 DNA 2 with C21A, G22T, G23T
Question: Does B3 bind (HIS-Yna1p(1-185) [5])?
Answer: Result: no binding

B4: YNT1 probe 2 m2 (dsDNA)
DNA 1: B2 DNA 1 with C19A, G20T, G21T
DNA 2: B2 DNA 2 with C13A, C14A, G15T
Question: Does B4 bind (HIS-Yna1p(1-185) [6])?
Answer: Result: no binding
